Laboratory results as given in IntAct's records for PubMed 12403843.

B1: Vitamin D3 receptor (Homo sapiens), P11473 (parent)
chain: MEAMAASTSLPDPGDFDRNVPRICGVCGDRATGFHFNAMTCEGCKGFFRRSMKRKALFTCPFNGDCRITKDNRRHCQACRLKRCVDIGMMKEFILTDEEVQRKREMILKRKEEEALKDSLRPKLSEEQQRIIAILLDAHHKTYDPTYSDFCQFRPPVRVNDGGGSHPSRPNSRHTPSFSGDSSSSCSDHCITSSDMMDSSSFSNLDLSEEDSDDPSVTLELSQLSMLPHLADLVSYSIQKVIGFAKMIPGFRDLTSEDQIVLLKSSAIEVIMLRSNESFTMDDMSWTCGNQDYKYRVSDVTKAGHSLELIEPLIKFQVGLKKLNLHEEEHVLLMAICIVSPDRPGVQDAALIEAIQDRLSNTLQTYIRCRHPPPGSHLLYAKMIQKLADLRSLNEEHSKQYRCLSFQPECSMKLTPLVLEVFGNEIS

Variants of: B1
Conditions: with ncoa1_human NCOA1, Q15788
Sequence of ncoa1_human NCOA1, Q15788 (Q15788 whole entry): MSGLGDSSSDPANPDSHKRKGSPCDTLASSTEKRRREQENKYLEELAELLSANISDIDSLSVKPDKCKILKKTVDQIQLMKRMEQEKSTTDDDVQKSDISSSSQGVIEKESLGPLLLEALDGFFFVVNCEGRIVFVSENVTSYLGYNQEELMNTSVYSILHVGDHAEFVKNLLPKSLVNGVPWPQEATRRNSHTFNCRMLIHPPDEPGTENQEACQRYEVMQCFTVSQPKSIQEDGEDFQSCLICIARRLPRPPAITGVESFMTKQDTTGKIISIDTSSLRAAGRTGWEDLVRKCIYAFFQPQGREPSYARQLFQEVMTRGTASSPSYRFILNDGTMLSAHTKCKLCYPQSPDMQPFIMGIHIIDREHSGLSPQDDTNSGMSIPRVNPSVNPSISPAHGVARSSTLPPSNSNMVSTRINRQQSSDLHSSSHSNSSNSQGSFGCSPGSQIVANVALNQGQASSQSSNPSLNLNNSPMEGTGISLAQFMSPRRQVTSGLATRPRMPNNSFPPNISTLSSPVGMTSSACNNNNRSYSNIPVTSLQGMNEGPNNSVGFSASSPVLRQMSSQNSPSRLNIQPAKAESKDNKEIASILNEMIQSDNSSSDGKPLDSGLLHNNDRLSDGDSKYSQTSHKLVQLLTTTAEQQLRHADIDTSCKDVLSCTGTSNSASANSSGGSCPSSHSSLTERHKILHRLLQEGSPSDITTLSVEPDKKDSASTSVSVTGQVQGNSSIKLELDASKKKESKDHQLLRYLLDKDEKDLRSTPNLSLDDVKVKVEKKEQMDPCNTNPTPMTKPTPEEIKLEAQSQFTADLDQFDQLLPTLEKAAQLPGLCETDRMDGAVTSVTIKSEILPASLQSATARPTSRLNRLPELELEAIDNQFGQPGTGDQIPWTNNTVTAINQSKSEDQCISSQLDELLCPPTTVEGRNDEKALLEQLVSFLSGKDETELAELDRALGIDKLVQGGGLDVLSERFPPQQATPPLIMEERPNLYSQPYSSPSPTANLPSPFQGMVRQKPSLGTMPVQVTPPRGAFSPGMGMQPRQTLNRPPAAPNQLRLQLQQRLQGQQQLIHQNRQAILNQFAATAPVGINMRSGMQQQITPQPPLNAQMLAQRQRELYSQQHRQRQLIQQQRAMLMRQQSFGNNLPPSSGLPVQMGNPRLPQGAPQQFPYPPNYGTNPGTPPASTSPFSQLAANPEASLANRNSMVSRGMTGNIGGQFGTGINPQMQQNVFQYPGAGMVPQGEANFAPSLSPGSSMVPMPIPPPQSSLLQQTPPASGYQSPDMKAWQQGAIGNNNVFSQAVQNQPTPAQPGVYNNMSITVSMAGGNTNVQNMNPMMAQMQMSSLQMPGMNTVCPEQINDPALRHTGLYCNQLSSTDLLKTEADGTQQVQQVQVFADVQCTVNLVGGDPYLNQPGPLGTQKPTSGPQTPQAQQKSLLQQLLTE

| effect of a mutation on the interaction | Variant |
| --- | --- |
| disrupting interaction strength | MEAMAASTSLPDPGDFDRNVPRICGVCGDRATGFHFNAMTCEGCKGFFRRSMKRKALFTCPFNGDCRITKDNRRHCQACRLKRCVDIGMMKEFILTDEEVQRKREMILKRKEEEALKDSLRPKLSEEQQRIIAILLDAHHKTYDPTYSDFCQFRPPVRVNDGGGSHPSRPNSRHTPSFSGDSSSSCSDHCITSSDMMDSSSFSNLDLSEEDSDDPSVTLELSQLSMLPHLADLVSYSIQKVIGFAKMIPGFRDLTSEDQIVLLKSSAIEVIMLRSNESFTMDDMSWTCGNQDYKYRVSDVTKAGHSLELIEPLIKFQVGLKKLNLHEEEHVLLMAICIVSPDRPGVQDAALIEAIQDRLSNTLQTYIRCRHPPPGSHLLYAKMIQKLADLRSLNEEHSKQYRCLSFQPECSMKLTPLVLKVFGNEIS [E420K] |

Variants of: B1
Conditions: with med1_human MED1, Q15648
Sequence of med1_human MED1, Q15648 (Q15648 whole entry): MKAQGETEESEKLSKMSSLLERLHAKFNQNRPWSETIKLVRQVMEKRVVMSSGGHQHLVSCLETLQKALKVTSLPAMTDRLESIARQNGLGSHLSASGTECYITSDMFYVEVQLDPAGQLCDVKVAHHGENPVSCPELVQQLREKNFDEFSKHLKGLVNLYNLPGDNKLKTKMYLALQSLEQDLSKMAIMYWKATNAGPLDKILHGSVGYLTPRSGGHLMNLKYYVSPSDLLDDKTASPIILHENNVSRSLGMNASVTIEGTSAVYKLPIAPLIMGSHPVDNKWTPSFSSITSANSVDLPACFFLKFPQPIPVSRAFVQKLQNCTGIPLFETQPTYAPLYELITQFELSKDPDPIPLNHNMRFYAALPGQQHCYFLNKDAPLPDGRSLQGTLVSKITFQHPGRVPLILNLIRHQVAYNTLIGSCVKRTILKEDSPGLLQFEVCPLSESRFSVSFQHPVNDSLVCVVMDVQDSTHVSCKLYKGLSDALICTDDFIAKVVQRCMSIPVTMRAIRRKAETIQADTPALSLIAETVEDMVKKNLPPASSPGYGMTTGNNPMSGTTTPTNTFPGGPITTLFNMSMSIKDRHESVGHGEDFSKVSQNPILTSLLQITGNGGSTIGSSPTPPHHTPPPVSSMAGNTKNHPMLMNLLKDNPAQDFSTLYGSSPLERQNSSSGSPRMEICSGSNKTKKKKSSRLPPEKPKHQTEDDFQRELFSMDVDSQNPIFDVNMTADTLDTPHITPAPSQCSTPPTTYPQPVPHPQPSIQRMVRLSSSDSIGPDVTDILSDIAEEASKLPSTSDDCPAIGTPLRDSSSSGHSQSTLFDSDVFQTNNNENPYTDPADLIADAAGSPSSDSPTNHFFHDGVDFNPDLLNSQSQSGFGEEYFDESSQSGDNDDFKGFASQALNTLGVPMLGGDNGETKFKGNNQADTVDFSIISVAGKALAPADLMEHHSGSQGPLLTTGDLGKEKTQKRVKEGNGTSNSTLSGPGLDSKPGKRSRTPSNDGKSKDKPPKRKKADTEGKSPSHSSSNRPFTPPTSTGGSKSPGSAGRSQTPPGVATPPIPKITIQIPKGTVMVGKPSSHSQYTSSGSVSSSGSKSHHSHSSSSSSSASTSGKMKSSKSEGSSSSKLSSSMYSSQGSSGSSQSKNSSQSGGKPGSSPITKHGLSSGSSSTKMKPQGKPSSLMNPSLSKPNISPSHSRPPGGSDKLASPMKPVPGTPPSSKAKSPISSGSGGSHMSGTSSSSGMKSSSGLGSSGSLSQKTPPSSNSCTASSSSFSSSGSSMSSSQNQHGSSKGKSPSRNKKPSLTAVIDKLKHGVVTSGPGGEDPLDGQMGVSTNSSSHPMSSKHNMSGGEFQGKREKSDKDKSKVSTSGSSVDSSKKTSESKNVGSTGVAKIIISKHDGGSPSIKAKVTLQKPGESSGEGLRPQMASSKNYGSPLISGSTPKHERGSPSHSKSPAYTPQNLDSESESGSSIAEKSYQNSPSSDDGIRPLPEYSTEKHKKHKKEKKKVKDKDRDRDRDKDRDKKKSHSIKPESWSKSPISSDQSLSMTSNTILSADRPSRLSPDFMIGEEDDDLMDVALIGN

| effect of a mutation on the interaction | Variant |
| --- | --- |
| disrupting interaction strength | MEAMAASTSLPDPGDFDRNVPRICGVCGDRATGFHFNAMTCEGCKGFFRRSMKRKALFTCPFNGDCRITKDNRRHCQACRLKRCVDIGMMKEFILTDEEVQRKREMILKRKEEEALKDSLRPKLSEEQQRIIAILLDAHHKTYDPTYSDFCQFRPPVRVNDGGGSHPSRPNSRHTPSFSGDSSSSCSDHCITSSDMMDSSSFSNLDLSEEDSDDPSVTLELSQLSMLPHLADLVSYSIQKVIGFAKMIPGFRDLTSEDQIVLLKSSAIEVIMLRSNESFTMDDMSWTCGNQDYKYRVSDVTKAGHSLELIEPLIKFQVGLKKLNLHEEEHVLLMAICIVSPDRPGVQDAALIEAIQDRLSNTLQTYIRCRHPPPGSHLLYAKMIQKLADLRSLNEEHSKQYRCLSFQPECSMKLTPLVLKVFGNEIS [E420K] |
